The text below walks through data of patent publication US20220289830A1.

Where a chain is given by its changes, count along the chain named.

To fix the notation:
B1: 2D3 (antibody, V domains shown)
VH: EVQLLESGGGLVQPGGSLRLSCTASGFTFSDNHMSWVRQAPGKGLDWVSGISESGGSTYYADSVKGRFSTSRDNSKSTLYLDMNSLRAEDTAIYYCAKGRFSYDTRHFFRAVYGMDVWGQGTAVTVSS
VL: DIQLTQSPSSLSASVGDRVTITCRASQGISSYLAWYQQKPGKAPKLLIYAASTLQSGVPSRFSGSGSGTDFTLTISSLQPEDFATYYCQQLSSYPLSFGGGTKVEIK
B2: 7B1-1F5 (antibody, V domains shown)
VH: B1 VH with H33Y, G50V, Y59N, Y103T, D104L, T105S, R106S
VL: B1 VL with L11F, V15T, L46V, D70E, S92K, S97T, V104L
B3: 9B12 (antibody, V domains shown)
VH: B1 VH with H33P, G50V, Y59N, Y60D, Y103T, D104N, T105S, R106D, F109Y
VL: B1 VL with S97T

The target in the assay is native PcrV on live Pseudomonas aeruginosa (strains O6-57/66, O11-PA103, O1-52/66, O16-177/81) (Pseudomonas aeruginosa). Description: cell-based or functional assay.
B1: the RBC lysis assay IC50 (P. aeruginosa strain 57/66(O6)) was 0.05 µg/mL.

B2 gave an RBC lysis assay IC50 (P. aeruginosa strain 57/66(O6)) of 0.19 µg/mL.

The molecule B3 gave an RBC lysis assay IC50 (P. aeruginosa strain 57/66(O6)) of 0.07 µg/mL.
